Key:
Assay in all cases: holdup assay
Parameters in all cases: key: below the threshold = too weak to quantify, mostly under pKd 3.1 to 4
FRMPD2_2, Q68DX3 = molecular target: FRMPD2_2, Q68DX3
PDLIM1, O00151 = molecular target: PDLIM1, O00151
LIN7C, Q9NUP9 = molecular target: T1, LIN7C, Q9NUP9
T1 sequence (Q9NUP9 88-185, limits assumed, looked up): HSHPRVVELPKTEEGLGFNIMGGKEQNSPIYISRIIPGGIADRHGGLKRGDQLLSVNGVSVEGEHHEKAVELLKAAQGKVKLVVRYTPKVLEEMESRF

Inadl_4, Q8NI35 = molecular target: Inadl_4, Q8NI35
ARHGAP21, Q5T5U3 = molecular target: T2, ARHGAP21, Q5T5U3
T2 sequence (Q5T5U3 45-169, limits assumed, looked up): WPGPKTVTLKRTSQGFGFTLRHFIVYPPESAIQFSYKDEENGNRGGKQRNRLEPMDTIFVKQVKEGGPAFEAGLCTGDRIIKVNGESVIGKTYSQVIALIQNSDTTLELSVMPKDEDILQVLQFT

SHANK1, Q9Y566 = molecular target: T3, SHANK1, Q9Y566
T3 sequence (Q9Y566 658-767, limits assumed, looked up): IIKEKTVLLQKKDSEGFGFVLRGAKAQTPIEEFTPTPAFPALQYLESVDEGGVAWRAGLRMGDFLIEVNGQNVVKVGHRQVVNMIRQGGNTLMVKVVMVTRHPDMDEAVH

MAGI2_4, Q86UL8 = molecular target: MAGI2_4, Q86UL8
LRRC7, Q96NW7 = molecular target: T4, LRRC7, Q96NW7
T4 sequence (Q96NW7 1440-1537, limits assumed, looked up): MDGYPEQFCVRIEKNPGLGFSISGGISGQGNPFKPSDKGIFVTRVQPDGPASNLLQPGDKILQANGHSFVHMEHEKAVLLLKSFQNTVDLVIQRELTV

LDB3, O75112 = molecular target: LDB3, O75112
FRMPD2_1, Q68DX3 = molecular target: FRMPD2_1, Q68DX3
MAGI2_3, Q86UL8 = molecular target: MAGI2_3, Q86UL8
PARD3_3, Q8TEW0 = molecular target: PARD3_3, Q8TEW0
ARHGEF11, O15085 = molecular target: T5, ARHGEF11, O15085
T5 sequence (O15085 42-136, limits assumed, looked up): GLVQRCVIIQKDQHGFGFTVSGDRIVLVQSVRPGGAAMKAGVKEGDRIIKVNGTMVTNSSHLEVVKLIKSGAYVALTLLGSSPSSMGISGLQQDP

Inadl_8, Q8NI35 = molecular target: Inadl_8, Q8NI35
DLG4_1, P78352 = molecular target: DLG4_1, P78352
GRID2IP_1, A4D2P6 = molecular target: GRID2IP_1, A4D2P6
DLG2_3, Q15700 = molecular target: DLG2_3, Q15700
NHERF4_2, Q86UT5 = molecular target: NHERF4_2, Q86UT5
LNX2_3, Q8N448 = molecular target: T6, LNX2_3, Q8N448
T6 sequence (Q8N448 463-564, limits assumed, looked up): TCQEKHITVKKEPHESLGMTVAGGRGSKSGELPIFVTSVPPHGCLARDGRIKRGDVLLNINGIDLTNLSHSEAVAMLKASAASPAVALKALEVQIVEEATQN

RAPGEF6, Q8TEU7 = molecular target: T7, RAPGEF6, Q8TEU7
T7 sequence (Q8TEU7 525-625, limits assumed, looked up): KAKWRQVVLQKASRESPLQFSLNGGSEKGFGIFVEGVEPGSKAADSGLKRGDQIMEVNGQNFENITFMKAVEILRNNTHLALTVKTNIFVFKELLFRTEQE

TJP3_3, O95049 = molecular target: T8, TJP3_3, O95049
T8 sequence (O95049 375-456, limits assumed, looked up): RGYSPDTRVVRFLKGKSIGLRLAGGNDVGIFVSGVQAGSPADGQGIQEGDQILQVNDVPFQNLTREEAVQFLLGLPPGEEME

APBA1_2, Q02410 = molecular target: T9, APBA1_2, Q02410
T9 sequence (Q02410 742-832, limits assumed, looked up): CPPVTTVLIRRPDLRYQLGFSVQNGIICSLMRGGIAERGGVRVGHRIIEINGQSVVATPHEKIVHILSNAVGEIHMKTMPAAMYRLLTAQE

MAGI3_2, Q5TCQ9 = molecular target: MAGI3_2, Q5TCQ9
NHERF4_1, Q86UT5-2 = molecular target: NHERF4_1, Q86UT5-2
APBA1_1, Q02410 = molecular target: T10, APBA1_1, Q02410
T10 sequence (Q02410 651-752, limits assumed, looked up): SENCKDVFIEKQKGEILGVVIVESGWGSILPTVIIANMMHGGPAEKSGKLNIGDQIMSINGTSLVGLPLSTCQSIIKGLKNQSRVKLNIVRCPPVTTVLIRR

Inadl_2, Q8NI35 = molecular target: Inadl_2, Q8NI35
SCRIB_2, Q14160 = molecular target: SCRIB_2, Q14160
PTPN3, P26045 = molecular target: PTPN3, P26045
[1] = modified: phospho on T at position -2 from the C-terminal residue
[2] = plain residues with an end cap or a label only (N-terminal biotin on a linker: ado-ado)

Chain of DLG4_1, P78352 (P78352 62-152): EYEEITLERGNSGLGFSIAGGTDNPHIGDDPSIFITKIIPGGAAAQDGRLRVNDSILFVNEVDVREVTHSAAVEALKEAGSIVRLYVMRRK
Chain of Inadl_2, Q8NI35 (Q8NI35 238-335): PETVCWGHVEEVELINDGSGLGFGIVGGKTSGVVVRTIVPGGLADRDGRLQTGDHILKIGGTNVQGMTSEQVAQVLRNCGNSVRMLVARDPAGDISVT
Chain of MAGI2_3, Q86UL8 (Q86UL8 600-682): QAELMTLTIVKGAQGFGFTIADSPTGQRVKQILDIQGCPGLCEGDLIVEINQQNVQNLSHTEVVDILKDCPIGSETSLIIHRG
Chain of Inadl_4, Q8NI35 (Q8NI35 547-651): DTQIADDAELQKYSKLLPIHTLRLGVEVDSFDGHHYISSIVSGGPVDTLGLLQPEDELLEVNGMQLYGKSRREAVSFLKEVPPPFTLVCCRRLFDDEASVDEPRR
Chain of GRID2IP_1, A4D2P6 (A4D2P6 1-87): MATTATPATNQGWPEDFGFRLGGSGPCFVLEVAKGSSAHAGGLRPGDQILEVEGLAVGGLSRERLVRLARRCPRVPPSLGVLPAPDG
Chain of PTPN3, P26045 (P26045 505-587): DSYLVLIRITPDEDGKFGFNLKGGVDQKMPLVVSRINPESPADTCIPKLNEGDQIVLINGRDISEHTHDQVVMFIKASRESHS
Chain of FRMPD2_2, Q68DX3 (Q68DX3 944-1038): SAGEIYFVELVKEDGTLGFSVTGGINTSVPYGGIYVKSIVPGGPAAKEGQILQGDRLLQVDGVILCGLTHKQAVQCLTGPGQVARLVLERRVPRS
Chain of Inadl_8, Q8NI35 (Q8NI35 1425-1530): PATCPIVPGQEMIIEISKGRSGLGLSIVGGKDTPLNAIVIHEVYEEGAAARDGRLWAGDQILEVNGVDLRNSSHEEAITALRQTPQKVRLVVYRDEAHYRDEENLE
Chain of FRMPD2_1, Q68DX3 (Q68DX3 770-861): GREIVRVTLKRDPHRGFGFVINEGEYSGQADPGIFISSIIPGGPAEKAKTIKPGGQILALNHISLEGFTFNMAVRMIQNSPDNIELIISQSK
Chain of MAGI2_4, Q86UL8 (Q86UL8 772-865): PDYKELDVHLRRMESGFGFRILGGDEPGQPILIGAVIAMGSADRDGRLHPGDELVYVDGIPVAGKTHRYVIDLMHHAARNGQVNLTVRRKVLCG
Chain of MAGI3_2, Q5TCQ9 (Q5TCQ9 398-503): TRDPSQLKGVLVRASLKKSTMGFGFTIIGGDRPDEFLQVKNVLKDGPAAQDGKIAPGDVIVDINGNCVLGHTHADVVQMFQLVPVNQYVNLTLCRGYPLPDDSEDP
Chain of NHERF4_1, Q86UT5-2 (Q86UT5 other isoform, or with tags, fused parts or gaps): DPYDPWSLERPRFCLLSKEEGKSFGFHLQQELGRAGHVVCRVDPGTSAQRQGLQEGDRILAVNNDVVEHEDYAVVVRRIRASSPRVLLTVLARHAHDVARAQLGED
Chain of SCRIB_2, Q14160 (Q14160 857-960): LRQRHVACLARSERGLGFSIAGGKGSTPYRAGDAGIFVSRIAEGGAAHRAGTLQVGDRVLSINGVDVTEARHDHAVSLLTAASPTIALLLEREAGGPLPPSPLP
Chain of PARD3_3, Q8TEW0 (Q8TEW0 582-685): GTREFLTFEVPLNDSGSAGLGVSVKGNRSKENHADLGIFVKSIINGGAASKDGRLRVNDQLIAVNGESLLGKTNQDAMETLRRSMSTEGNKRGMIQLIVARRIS
Chain of LDB3, O75112 (O75112 1-94): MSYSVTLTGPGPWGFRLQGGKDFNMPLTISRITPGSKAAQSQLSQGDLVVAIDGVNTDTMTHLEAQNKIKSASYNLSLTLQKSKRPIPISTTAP
Chain of NHERF4_2, Q86UT5 (Q86UT5 220-308): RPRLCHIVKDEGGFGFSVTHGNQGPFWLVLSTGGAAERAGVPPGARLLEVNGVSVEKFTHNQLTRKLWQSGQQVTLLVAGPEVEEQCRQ
Chain of PDLIM1, O00151 (O00151 1-87): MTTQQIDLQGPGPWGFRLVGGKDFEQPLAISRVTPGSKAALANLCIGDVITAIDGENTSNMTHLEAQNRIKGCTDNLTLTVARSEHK

B1: HPV33-E6_-2P, P06427 (peptide)
chain: SRSRRRETAL
- pKd (FRMPD2_2, Q68DX3; [1]): below the threshold
- pKd (PDLIM1, O00151; [1]): below the threshold
- pKd (LIN7C, Q9NUP9; [1]): 4.08
- pKd (Inadl_4, Q8NI35; [1]): below the threshold
- pKd (ARHGAP21, Q5T5U3; [1]): 4.02
- pKd (SHANK1, Q9Y566; [1]): below the threshold
- pKd (MAGI2_4, Q86UL8; [1]): below the threshold
- pKd (LRRC7, Q96NW7; [1]): below the threshold
- pKd (LDB3, O75112; [1]): below the threshold
- pKd (FRMPD2_1, Q68DX3; [1]): below the threshold
- pKd (MAGI2_3, Q86UL8; [1]): below the threshold
- pKd (PARD3_3, Q8TEW0; [1]): below the threshold
- pKd (ARHGEF11, O15085; [1]): below the threshold
- pKd (Inadl_8, Q8NI35; [1]): below the threshold
- pKd (DLG4_1, P78352; [1]): below the threshold
- pKd (GRID2IP_1, A4D2P6; [1]): below the threshold
- pKd (DLG2_3, Q15700; [1]): below the threshold
- pKd (NHERF4_2, Q86UT5; [1]): below the threshold
- pKd (LNX2_3, Q8N448; [1]): below the threshold
- pKd (RAPGEF6, Q8TEU7; [1]): below the threshold
- pKd (TJP3_3, O95049; [1]): below the threshold
- pKd (APBA1_2, Q02410; [1]): below the threshold
- pKd (MAGI3_2, Q5TCQ9; [1]): below the threshold
- pKd (NHERF4_1, Q86UT5-2; [1]): 4.6
- pKd (APBA1_1, Q02410; [1]): below the threshold
- pKd (Inadl_2, Q8NI35; [1]): below the threshold
- pKd (SCRIB_2, Q14160; [1]): below the threshold
- pKd (PTPN3, P26045; [1]): 4.02

B2: SORCS3, Q9UPU3 (peptide)
chain: TKEIPNCTSV
- pKd (FRMPD2_2, Q68DX3; [2]): 4.21
- pKd (PDLIM1, O00151; [2]): below the threshold
- pKd (LIN7C, Q9NUP9; [2]): below the threshold
- pKd (Inadl_4, Q8NI35; [2]): below the threshold
- pKd (ARHGAP21, Q5T5U3; [2]): 3.86
- pKd (SHANK1, Q9Y566; [2]): 3.92
- pKd (MAGI2_4, Q86UL8; [2]): 4.16
- pKd (LRRC7, Q96NW7; [2]): below the threshold
- pKd (LDB3, O75112; [2]): below the threshold
- pKd (FRMPD2_1, Q68DX3; [2]): below the threshold
- pKd (MAGI2_3, Q86UL8; [2]): 3.98
- pKd (PARD3_3, Q8TEW0; [2]): below the threshold
- pKd (ARHGEF11, O15085; [2]): 4.82
- pKd (Inadl_8, Q8NI35; [2]): 4.28
- pKd (DLG4_1, P78352; [2]): 4.26
- pKd (GRID2IP_1, A4D2P6; [2]): below the threshold
- pKd (DLG2_3, Q15700; [2]): 4.24
- pKd (NHERF4_2, Q86UT5; [2]): 3.49
- pKd (LNX2_3, Q8N448; [2]): below the threshold
- pKd (RAPGEF6, Q8TEU7; [2]): below the threshold
- pKd (TJP3_3, O95049; [2]): 3.54
- pKd (APBA1_2, Q02410; [2]): 4.64
- pKd (MAGI3_2, Q5TCQ9; [2]): 4.67
- pKd (NHERF4_1, Q86UT5-2; [2]): 4.2
- pKd (APBA1_1, Q02410; [2]): below the threshold
- pKd (Inadl_2, Q8NI35; [2]): below the threshold
- pKd (SCRIB_2, Q14160; [2]): 4.44
- pKd (PTPN3, P26045; [2]): 4.74

From PMC9482650, “Quantitative fragmentomics allow affinity mapping of interactomes” (Nature Communications, 2022)
